Drawing on the Immune Epitope Database (IEDB), this text covers IC50 for 18 sequences.

Where only a bound is given, the exact number is not on record here.

One experiment addresses HLA-A*02:02. Description: IEDB peptide-MHC binding, cellular MHC/competitive/fluorescence; ≥ and ≤ were set here for values at or beyond the usual limits of such assays.
The next experiment concerns the target HLA-A*02:03. The experiment is described as above.
In another experiment the target is HLA-A*02:06. Described as above.
Another experiment has as its target HLA-A*02:01. The description is as above.
The next experiment deals with HLA-A*68:02. The experiment can be described thus: IEDB peptide-MHC binding, purified MHC/competitive/radioactivity; ≥ and ≤ were set here for values at or beyond the usual limits of such assays.
Where [1] appears, read: source organism: Vaccinia virus WR.
[2] abbreviates: source organism: Influenza A virus.

In the case of NTGMGMYYPT, the IC50 – broadly, the concentration that inhibits the measured activity by half – with HLA-A*02:02 (setting [1]) came to 23.4 µM; in the experiment with HLA-A*02:03 (setting [1]) it was 21 µM; with HLA-A*02:06 (setting [1]) it was 11.3 µM; with HLA-A*02:01 (setting [1]), 28.8 µM; in the experiment with HLA-A*68:02 (setting [1]), 2.15 µM.

Regarding NTLIQYRQQL, the concentration for half-maximal inhibition (IC50) is 6.37 µM in the experiment with HLA-A*02:02 (setting [1]); 10.1 µM with HLA-A*02:03 (setting [1]); 20.9 µM in the experiment with HLA-A*02:06 (setting [1]); ≥ 70 µM with HLA-A*02:01 (setting [1]); 0.876 µM with HLA-A*68:02 (setting [1]).

On to NVQSLIKFI, for which the IC50 was determined as 12.9 µM with HLA-A*02:02 (setting [1]); 6.02 µM with HLA-A*02:03 (setting [1]); 10.5 µM in the experiment with HLA-A*02:06 (setting [1]); 17.1 µM with HLA-A*02:01 (setting [1]); 0.703 µM with HLA-A*68:02 (setting [1]).

On to NVTVTHSV, for which the IC50 in the experiment with HLA-A*02:02 (setting [2]) is 60.5 µM; with HLA-A*02:03 (setting [2]), 14.6 µM; with HLA-A*02:06 (setting [2]), 18.6 µM; with HLA-A*02:01 (setting [2]), 22.6 µM; with HLA-A*68:02 (setting [2]), 1.27 µM.

Turning to RASTTENAA, the IC50 with HLA-A*02:02 (setting [1]) was 26.7 µM; with HLA-A*02:03 (setting [1]), 66.7 µM; in the experiment with HLA-A*02:06 (setting [1]), 12.1 µM; in the experiment with HLA-A*02:01 (setting [1]), ≥ 70 µM; in the experiment with HLA-A*68:02 (setting [1]) it was 0.314 µM.

For SARALKAYFT, the IC50 is 21.6 µM with HLA-A*02:02 (setting [1]); 7.81 µM with HLA-A*02:03 (setting [1]); 25.7 µM with HLA-A*02:06 (setting [1]); 58.4 µM with HLA-A*02:01 (setting [1]); 4.15 µM in the experiment with HLA-A*68:02 (setting [1]).

Consider STSNVITDQT, for which the IC50 is 53.6 µM with HLA-A*02:02 (setting [1]); ≥ 70 µM with HLA-A*02:03 (setting [1]); 10.8 µM in the experiment with HLA-A*02:06 (setting [1]); 39.1 µM with HLA-A*02:01 (setting [1]); 0.077 µM with HLA-A*68:02 (setting [1]).

SVDFVVNGHT: the half-inhibitory concentration (IC50) with HLA-A*02:02 (setting [1]) is ≥ 70 µM; with HLA-A*02:03 (setting [1]), ≥ 70 µM; with HLA-A*02:06 (setting [1]) it was ≥ 70 µM; with HLA-A*02:01 (setting [1]), ≥ 70 µM; with HLA-A*68:02 (setting [1]) it was 1.34 µM.

In the case of TAATKRYPGV, the half-inhibitory concentration (IC50) is 25.5 µM with HLA-A*02:02 (setting [1]); 10.5 µM with HLA-A*02:03 (setting [1]); 5.57 µM with HLA-A*02:06 (setting [1]); 43.1 µM with HLA-A*02:01 (setting [1]); 0.96 µM with HLA-A*68:02 (setting [1]).

With TAEQLSKYV, the IC50 with HLA-A*02:02 (setting [1]) was 5.22 µM; with HLA-A*02:03 (setting [1]), 8.9 µM; with HLA-A*02:06 (setting [1]), 23.9 µM; with HLA-A*02:01 (setting [1]), 53.2 µM; with HLA-A*68:02 (setting [1]), 2.17 µM.

TAFFNTCKPT: the IC50 worked out at 31.6 µM with HLA-A*02:02 (setting [1]); 22.3 µM with HLA-A*02:03 (setting [1]); 33 µM in the experiment with HLA-A*02:06 (setting [1]); 37.9 µM in the experiment with HLA-A*02:01 (setting [1]); 0.535 µM in the experiment with HLA-A*68:02 (setting [1]).

Turning to TAIRAGYSI, the IC50 with HLA-A*02:02 (setting [1]) stood at 14.5 µM; with HLA-A*02:03 (setting [1]) it was 9.2 µM; with HLA-A*02:06 (setting [1]), 7.69 µM; with HLA-A*02:01 (setting [1]), 26.6 µM; with HLA-A*68:02 (setting [1]), 0.125 µM.

With TINALVYFST, the IC50 with HLA-A*02:02 (setting [1]) was determined as 14.1 µM; in the experiment with HLA-A*02:03 (setting [1]), 7.34 µM; in the experiment with HLA-A*02:06 (setting [1]) it was 62.7 µM; with HLA-A*02:01 (setting [1]), 5.16 µM; in the experiment with HLA-A*68:02 (setting [1]), 0.391 µM.

With TVDFTDCRTI, the half-maximal inhibitory concentration (IC50) in the experiment with HLA-A*02:02 (setting [1]) stood at 31.8 µM; with HLA-A*02:03 (setting [1]), 10.4 µM; with HLA-A*02:06 (setting [1]) it was 10.6 µM; with HLA-A*02:01 (setting [1]) it was 29.5 µM; in the experiment with HLA-A*68:02 (setting [1]), 0.348 µM.

For TVKNVDIIDL, the concentration for half-maximal inhibition (IC50) amounted to 31.3 µM with HLA-A*02:02 (setting [1]); 8.31 µM with HLA-A*02:03 (setting [1]); 12.4 µM with HLA-A*02:06 (setting [1]); 63.3 µM with HLA-A*02:01 (setting [1]); 0.834 µM with HLA-A*68:02 (setting [1]).

In the case of TVQIIKLL, the IC50 in the experiment with HLA-A*02:02 (setting [2]) is 43.8 µM; with HLA-A*02:03 (setting [2]), ≥ 70 µM; with HLA-A*02:06 (setting [2]), 51.8 µM; with HLA-A*02:01 (setting [2]) it was 47.2 µM; with HLA-A*68:02 (setting [2]) it was 1.38 µM.

Take VAEHRFENM: the half-inhibitory concentration (IC50) in the experiment with HLA-A*02:02 (setting [1]) is 7.13 µM; with HLA-A*02:03 (setting [1]), 7.16 µM; in the experiment with HLA-A*02:06 (setting [1]), 48.1 µM; with HLA-A*02:01 (setting [1]) it was ≥ 70 µM; in the experiment with HLA-A*68:02 (setting [1]), 4.42 µM.

As for WILWISFAIS, the 50% inhibitory concentration (IC50) in the experiment with HLA-A*02:02 (setting [2]) worked out at 18.7 µM; with HLA-A*02:03 (setting [2]), 9.09 µM; with HLA-A*02:06 (setting [2]), 27.2 µM; in the experiment with HLA-A*02:01 (setting [2]) it was 21.2 µM; in the experiment with HLA-A*68:02 (setting [2]), 2.51 µM.
